Data from patent publication US20250076311A1 (Chugai, published 2025).
Where a chain is given by its changes, count along the chain named. Names may count otherwise. Where two headings read alike, the source gives them in different places.

What was measured:
[1] = biological target: T1, cynomolgus monkey FcγRIIIaS extracellular domain with C-terminal His-tag (cynomolgus monkey, UniProt Q8SPW2 21-206 at identity 1.00)); experiment: SPR, KD(SG1)/KD(variant)
T1 construct: also called cyno FcgRIIIaS; cynoFcγRIIIaS
T1 chain: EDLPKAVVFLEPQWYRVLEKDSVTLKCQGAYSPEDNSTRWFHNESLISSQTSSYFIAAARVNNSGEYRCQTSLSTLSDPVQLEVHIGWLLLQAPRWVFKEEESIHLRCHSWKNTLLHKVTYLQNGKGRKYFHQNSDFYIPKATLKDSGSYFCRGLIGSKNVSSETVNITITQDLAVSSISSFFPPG

[2] = biological target: T2, human FcγRIIaH extracellular domain with C-terminal His-tag (human, UniProt P12318 34-217); experiment: SPR, KD(SG1)/KD(variant)
T2 construct: also called human FcgRIIaH; FcγRIIa (type H)
T2 sequence: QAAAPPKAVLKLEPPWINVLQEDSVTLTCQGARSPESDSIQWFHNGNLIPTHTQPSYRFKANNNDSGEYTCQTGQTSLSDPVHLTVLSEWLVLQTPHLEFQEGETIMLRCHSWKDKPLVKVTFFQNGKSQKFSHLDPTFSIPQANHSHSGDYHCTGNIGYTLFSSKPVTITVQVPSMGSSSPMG

[3] = biological target: T3, human FcγRIIb extracellular domain, C-terminal His-tag (human, UniProt P31994 43-217); experiment: SPR (BIACORE), antibody captured, FcgR analyte, 25 C
T3 construct: also called FcgRIIb
T3 sequence: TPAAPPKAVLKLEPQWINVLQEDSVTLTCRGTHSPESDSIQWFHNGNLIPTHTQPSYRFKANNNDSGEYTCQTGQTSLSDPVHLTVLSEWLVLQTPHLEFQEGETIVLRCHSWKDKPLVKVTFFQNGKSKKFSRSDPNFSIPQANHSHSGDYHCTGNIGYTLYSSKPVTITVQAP

[4] = biological target: T4, cynomolgus monkey FcγRIIa2 extracellular domain with C-terminal His-tag (cynomolgus monkey); experiment: SPR, KD(SG1)/KD(variant)
T4 construct: also called cyno FcgRIIa2; cynoFcγRIIa2
T4 chain: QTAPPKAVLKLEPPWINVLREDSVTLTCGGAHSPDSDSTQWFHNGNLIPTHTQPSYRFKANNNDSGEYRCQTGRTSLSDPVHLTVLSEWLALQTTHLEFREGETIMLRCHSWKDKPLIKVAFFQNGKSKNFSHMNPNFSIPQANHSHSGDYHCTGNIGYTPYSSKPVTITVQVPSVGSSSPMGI
Experimental: (§1) The kinetic analysis of interactions between these antibodies and FcγR was carried out using BIACORE® T200 or BIACORE® 4000 (GE Healthcare). HBS-EP+ (GE Healthcare) was used as the running buffer, and the measurement temperature was set to 25° C. […] After the measurement, the antibody captured on the chip was washed off by allowing reaction with 10 mM glycine-HCl, pH1.5 and 25 mM NaOH so that the chip was regenerated and used repeatedly. The sensorgrams obtained as measurement results were analyzed by the 1:1 Langmuir binding model using the BIACORE® Evaluation Software to calculate the binding rate constant ka (L/mol/s) and dissociation rate constant kd (1/s), and the dissociation constant KD (mol/L) was calculated from these values. […] Regarding such interactions, KD values were calculated using the following 1:1 binding model described in BIACORE® T100 Software Handbook BR1006-48 Edition AE.

[5] = biological target: T5, cynomolgus monkey FcγRIIa3 extracellular domain with C-terminal His-tag (cynomolgus monkey); experiment: SPR, KD(SG1)/KD(variant)
T5 construct: also called cyno FcgRIIa3; cynoFcγRIIa3
T5 chain: T4 chain with K127I, N130K, H133P, Q142R
Experimental: as §1

[6] = biological target: T1, cynomolgus monkey FcγRIIIaS …; experiment: SPR, KD(SG1)/KD(variant)
Experimental: as §1

[7] = biological target: T6, cynomolgus monkey FcγRIIa1 extracellular domain with C-terminal His-tag (cynomolgus monkey); experiment: SPR, KD(SG1)/KD(variant)
T6 construct: also called cyno FcgRIIa1; cynoFcγRIIa1
T6 chain: T4 chain with T95P, A121T, K127I, S128A, N130K, N135D, Q142R
Experimental: as §1

[8] = biological target: T5, cynomolgus monkey FcγRIIa3 …; experiment: SPR, antibody captured, FcγR analyte
[9] = biological target: T7, cynomolgus monkey FcγRIIb extracellular domain with C-terminal His-tag (cynomolgus monkey); experiment: SPR, antibody captured, FcγR analyte
T7 construct: also called cyno FcgRIIb; cynoFcγRIIb
T7 chain: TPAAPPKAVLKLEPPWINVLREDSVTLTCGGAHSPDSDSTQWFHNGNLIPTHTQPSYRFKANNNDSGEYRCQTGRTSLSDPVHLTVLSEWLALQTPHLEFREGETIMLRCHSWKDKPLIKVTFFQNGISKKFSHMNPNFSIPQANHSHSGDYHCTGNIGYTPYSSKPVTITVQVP

[10] = biological target: T1, cynomolgus monkey FcγRIIIaS …; experiment: SPR, antibody captured, FcγR analyte
[11] = biological target: T8, cynomolgus monkey FcγRIIb extracellular domain with C-terminal His-tag (cynomolgus monkey); experiment: SPR (Biacore), KD of SG1 divided by KD of variant
T8 construct: also called cyno FcgRIIb; cynoFcγRIIb
T8 chain: T7 chain

[12] = biological target: T9, human FcγRIIb extracellular domain with C-terminal His-tag (human, UniProt P31994 43-217); experiment: SPR (Biacore), KD of SG1 divided by KD of variant
T9 construct: also called human FcgRIIb
T9 sequence: T3 sequence

[13] = biological target: T10, human FcγRIIaR extracellular domain with C-terminal His-tag (human, UniProt P12318 34-217); experiment: SPR (Biacore), KD of SG1 divided by KD of variant
T10 construct: also called human FcgRIIaR; FcγRIIa (type R)
T10 chain: T2 sequence with H134R

[14] = biological target: T11, human FcγRIIaH extracellular domain with C-terminal His-tag (human, UniProt P12318 34-217); experiment: SPR (Biacore), KD of SG1 divided by KD of variant
T11 construct: also called human FcgRIIaH; FcγRIIa (type H)
T11 sequence: T2 sequence

[15] = biological target: T12, cynomolgus monkey FcγRIIa2 extracellular domain with C-terminal His-tag (cynomolgus monkey); experiment: SPR (Biacore), antibody captured, FcgR as analyte
T12 construct: also called cyno FcgRIIa2; cynoFcγRIIa2
T12 chain: T4 chain

[16] = biological target: T11, human FcγRIIaH extracellular domain …; experiment: SPR (Biacore), antibody captured, FcgR as analyte
[17] = biological target: T1, cynomolgus monkey FcγRIIIaS …; experiment: SPR, antibody captured, FcγR analyte
Experimental: as §1

[18] = biological target: T13, human FcγRIIIaV extracellular domain with C-terminal His-tag (human, UniProt P08637 17-208); experiment: SPR, KD(SG1)/KD(variant)
T13 construct: also called human FcgRIIIaV
Experimental: as §1

[19] = biological target: T14, human FcγRIIb extracellular domain with C-terminal His-tag (human, UniProt P31994 43-217); experiment: SPR, KD(SG1)/KD(variant)
T14 construct: also called human FcgRIIb
T14 sequence: T3 sequence
Experimental: as §1

[20] = biological target: T15, human FcγRIIaR extracellular domain with C-terminal His-tag (human, UniProt P12318 34-217); experiment: SPR, KD(SG1)/KD(variant)
T15 construct: also called human FcgRIIaR; FcγRIIa (type R)
T15 chain: T2 sequence with H134R
Experimental: as §1

[21] = biological target: T1, cynomolgus monkey FcγRIIIaS …; experiment: SPR, KD(SG1)/KD(variant)
Experimental: as §1

[22] = biological target: T2, human FcγRIIaH extracellular domain …; experiment: SPR, antibody captured, FcγR analyte
[23] = biological target: T5, cynomolgus monkey FcγRIIa3 …; experiment: SPR, KD(SG1)/KD(variant)
Experimental: as §1

[24] = biological target: T7, cynomolgus monkey FcγRIIb extracellular …; experiment: SPR, KD(SG1)/KD(variant)
Experimental: as §1

[25] = biological target: T16, cynomolgus monkey FcγRIIIaS extracellular domain, His-tagged (cynomolgus monkey, UniProt Q8SPW2 21-206 at identity 1.00)); experiment: SPR Biacore, antibody captured, FcgR analyte
T16 construct: also called cyno FcγRIIIaS; cynoFcγRIIIaS; not shown: C-terminal His-tag
T16 chain: T1 chain

[26] = biological target: T17, human FcγRIIb extracellular domain, His-tagged (human, UniProt P31994 43-217); experiment: SPR Biacore, KD(SG1)/KD(variant)
T17 construct: also called FcgRIIb (human); not shown: C-terminal His-tag
T17 sequence: T3 sequence

T13 sequence (P08637 17-208 F176V): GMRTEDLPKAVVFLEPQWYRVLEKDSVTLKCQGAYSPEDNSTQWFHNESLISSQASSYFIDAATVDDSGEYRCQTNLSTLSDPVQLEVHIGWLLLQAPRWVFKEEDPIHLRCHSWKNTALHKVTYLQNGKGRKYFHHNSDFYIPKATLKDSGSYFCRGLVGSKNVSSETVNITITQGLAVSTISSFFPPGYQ

B1: M103205H795-MY535/M103202L889-SK1 (antibody, human IgG1, kappa, name in EU numbering)
heavy: QVTLKESGPVLVKPTETLTLTCTVSGIDLSHDDISWVRQAPGKGLEWVGIISYAGSTYYASWAKGRLTISKDTSKNQVVLTMTNMDPVDTATYYCARGVPAYSHGGDLWGQGTLVTVSSASTKGPSVFPLAPSSKSTSGGTAALGCLVKDYFPEPVTVSWNSGALTSGVHTFPAVLQSSGLYSLSSVVTVPSSSLGTQTYICNVNHKPSNTKVDKKVEPKSCDKTHTCPPCPGPEWLTGPSVFLFPPKPKDTLMISRTPEVTCVVVDVSDEDPEVKFNWYVDGVEVHNAKTKPREEQYNSTYRVVSVLTVLHQDWLNGKEYKCKVSNKALPKPIEKTISKAKGQPREPQVYTLPPSREEMTKNQVSLTCLVKGFYPSDIAVEWESNGQPENNYKTTPPVLDSDGSFFLYSKLTVDKSRWQQGNVFSCSVMHEALHNHYTQKSLSLSP
light: DIVMTQSPATLSLSPGERATLSCTSSQSVYHANWLSWFQQKPGQPPKLLIYWASTLAYGVPSRFSGSGSGTDFTLTISSLQPEDAATYYCAGGYGGGRYAFGQGTKVEIKRTVAAPSVFIFPPSDEQLKSGTASVVCLLNNFYPREAKVQWKVDNALQSGNSQESVTEQDSKDSTYSLSSTLTLSKADYEKHKVYACEVTHQGLSSPVTKSFNRGEC
notes: copies: 2 + 2
KD fold (SG1 = 1) [1]: 0.17 fold | KD fold (SG1 = 1) [2]: 1.8 fold

B2: MS103240H795-SG1/M103202L1045-SK1 (antibody, human IgG1, kappa)
heavy: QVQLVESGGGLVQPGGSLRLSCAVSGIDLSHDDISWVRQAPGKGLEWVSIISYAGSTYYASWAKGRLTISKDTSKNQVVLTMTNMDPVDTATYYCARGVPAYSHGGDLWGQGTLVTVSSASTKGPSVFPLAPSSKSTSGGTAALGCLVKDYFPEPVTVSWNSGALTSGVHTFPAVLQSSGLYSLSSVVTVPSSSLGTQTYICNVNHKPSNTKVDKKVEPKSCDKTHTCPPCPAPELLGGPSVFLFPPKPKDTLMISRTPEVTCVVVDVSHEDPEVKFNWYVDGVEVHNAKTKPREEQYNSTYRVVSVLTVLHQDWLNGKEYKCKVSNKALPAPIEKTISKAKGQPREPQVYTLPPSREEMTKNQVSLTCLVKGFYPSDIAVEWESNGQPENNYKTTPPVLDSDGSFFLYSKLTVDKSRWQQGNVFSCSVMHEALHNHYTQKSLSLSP
light: B1 light with S25T, A32E
notes: Parent of the Fc variants; anti-latent myostatin variable region, human IgG1-type constant region SG1; also called MS1032LO19-SG1; copies: 2 + 2
Kd [3]: 5.8 µM

B3: MS1032LO06-PK56 (antibody, human IgG1, kappa)
heavy: B1 heavy with G233A, W236L, T238N, Q313R, P345R, D415R
light: B1 light
notes: MY201 with Q311R/P343R/D413R; also called MS103205H795-PK56; M103205H795-MY56
KD fold (SG1 = 1) [4]: 3.9 fold | KD fold (SG1 = 1) [5]: 2.5 fold | KD fold (SG1 = 1) [6]: 0.08 fold | KD fold (SG1 = 1) [7]: 2.5 fold | Kd [8]: 3.5 µM | Kd [9]: 0.55 µM | Kd [10]: 4.4 µM

B4: M103205H795-MY387 / M103202L889-SK1 (antibody, human IgG1, kappa, name in EU numbering)
heavy: B1 heavy with G233A, W236L, S241V
light: B1 light
KD fold (SG1 = 1) [11]: 2.7 fold | KD fold (SG1 = 1) [12]: 2.9 fold | KD fold (SG1 = 1) [13]: 5.5 fold | KD fold (SG1 = 1) [14]: 2.9 fold | Kd [15]: 1.9 µM | Kd [16]: 0.24 µM

B5: MS1032LO06-MY351 (antibody, human IgG1, kappa)
heavy: B1 heavy with G233A, W236L, T238N, Q313R, D415K
light: B1 light
notes: also called M103205H795-MY351; copies: 2 + 2
Kd [17]: 5.2 µM | KD fold (SG1 = 1) [18]: 0.03 fold | KD fold (SG1 = 1) [4]: 3.8 fold | KD fold (SG1 = 1) [19]: 4.7 fold | KD fold (SG1 = 1) [6]: 0.07 fold | KD fold (SG1 = 1) [20]: 0.8 fold | KD fold (SG1 = 1) [21]: 0.07 fold | Kd [10]: 4.1 µM | Kd [22]: 0.012 µM

B6: MS1032LO06-MY205 (antibody, human IgG1, kappa)
heavy: B1 heavy with G233A, W236L, T238N, Q297L
light: B1 light
notes: also called M103205H795-MY205; copies: 2 + 2
KD fold (SG1 = 1) [23]: 5.2 fold

B7: MS1032LO06-MY201 (antibody, human IgG1, kappa)
heavy: B1 heavy with G233A, W236L, T238N
light: B1 light
notes: also called M103205H795-MY201; copies: 2 + 2
KD fold (SG1 = 1) [5]: 4.5 fold | KD fold (SG1 = 1) [24]: 5 fold | KD fold (SG1 = 1) [6]: 0.08 fold | Kd [10]: 3.7 µM

B8: M103205H795-MY001/M103202L889-SK1 (antibody, human IgG1, kappa, name in EU numbering)
heavy: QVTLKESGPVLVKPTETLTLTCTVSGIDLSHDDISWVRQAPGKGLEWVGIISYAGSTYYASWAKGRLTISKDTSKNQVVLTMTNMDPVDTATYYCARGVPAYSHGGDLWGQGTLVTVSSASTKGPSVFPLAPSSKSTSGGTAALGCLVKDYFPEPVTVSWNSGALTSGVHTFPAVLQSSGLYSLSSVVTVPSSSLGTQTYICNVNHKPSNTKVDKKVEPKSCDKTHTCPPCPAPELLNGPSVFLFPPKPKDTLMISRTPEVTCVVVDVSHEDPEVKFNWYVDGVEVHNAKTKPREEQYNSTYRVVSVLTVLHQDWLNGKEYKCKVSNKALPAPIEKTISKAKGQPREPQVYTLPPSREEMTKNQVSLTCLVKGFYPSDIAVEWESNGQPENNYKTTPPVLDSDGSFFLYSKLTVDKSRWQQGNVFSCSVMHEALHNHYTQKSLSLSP
light: B1 light
notes: Substitution introduced into M103205H795-SG1; EU numbering
Kd [25]: 12 µM | KD fold (SG1 = 1) [26]: 6.6 fold
